Measurements published in IntAct's records for PubMed 9756887.

B1: Focal adhesion kinase 1 (Homo sapiens), Q05397 (parent)
chain: MAAAYLDPNLNHTPNSSTKTHLGTGMERSPGAMERVLKVFHYFESNSEPTTWASIIRHGDATDVRGIIQKIVDSHKVKHVACYGFRLSHLRSEEVHWLHVDMGVSSVREKYELAHPPEEWKYELRIRYLPKGFLNQFTEDKPTLNFFYQQVKSDYMLEIADQVDQEIALKLGCLEIRRSYWEMRGNALEKKSNYEVLEKDVGLKRFFPKSLLDSVKAKTLRKLIQQTFRQFANLNREESILKFFEILSPVYRFDKECFKCALGSSWIISVELAIGPEEGISYLTDKGCNPTHLADFTQVQTIQYSNSEDKDRKGMLQLKIAGAPEPLTVTAPSLTIAENMADLIDGYCRLVNGTSQSFIIRPQKEGERALPSIPKLANSEKQGMRTHAVSVSETDDYAEIIDEEDTYTMPSTRDYEIQRERIELGRCIGEGQFGDVHQGIYMSPENPALAVAIKTCKNCTSDSVREKFLQEALTMRQFDHPHIVKLIGVITENPVWIIMELCTLGELRSFLQVRKYSLDLASLILYAYQLSTALAYLESKRFVHRDIAARNVLVSSNDCVKLGDFGLSRYMEDSTYYKASKGKLPIKWMAPESINFRRFTSASDVWMFGVCMWEILMHGVKPFQGVKNNDVIGRIENGERLPMPPNCPPTLYSLMTKCWAYDPSRRPRFTELKAQLSTILEEEKAQQEERMRMESRRQATVSWDSGGSDEAPPKPSRPGYPSPRSSEGFYPSPQHMVQTNHYQVSGYPGSHGITAMAGSIYPGQASLLDQTDSWNHRPQEIAMWQPNVEDSTVLDLRGIGQVLPTHLMEERLIRQQQEMEEDQRWLEKEERFLKPDVRLSRGSIDREDGSLQGPIGNQHIYQPVGKPDPAAPPKKPPRPGAPGHLGSLASLSSPADSYNEGVKLQPQEISPPPTANLDRSNDKVYENVTGLVKAVIEMSSKIQPAPPEEYVPMVKEVGLALRTLLATVDETIPLLPASTHREIEMAQKLLNSDLGELINKMKLAQQYVMTSLQQEYKKQMLTAAHALAVDAKNLLDVIDQARLKMLGQTRPH

Assays:
paxi_human PXN, P49023 = variants of: B1; conditions: with paxi_human PXN
Sequence of paxi_human PXN, P49023 (P49023 whole entry): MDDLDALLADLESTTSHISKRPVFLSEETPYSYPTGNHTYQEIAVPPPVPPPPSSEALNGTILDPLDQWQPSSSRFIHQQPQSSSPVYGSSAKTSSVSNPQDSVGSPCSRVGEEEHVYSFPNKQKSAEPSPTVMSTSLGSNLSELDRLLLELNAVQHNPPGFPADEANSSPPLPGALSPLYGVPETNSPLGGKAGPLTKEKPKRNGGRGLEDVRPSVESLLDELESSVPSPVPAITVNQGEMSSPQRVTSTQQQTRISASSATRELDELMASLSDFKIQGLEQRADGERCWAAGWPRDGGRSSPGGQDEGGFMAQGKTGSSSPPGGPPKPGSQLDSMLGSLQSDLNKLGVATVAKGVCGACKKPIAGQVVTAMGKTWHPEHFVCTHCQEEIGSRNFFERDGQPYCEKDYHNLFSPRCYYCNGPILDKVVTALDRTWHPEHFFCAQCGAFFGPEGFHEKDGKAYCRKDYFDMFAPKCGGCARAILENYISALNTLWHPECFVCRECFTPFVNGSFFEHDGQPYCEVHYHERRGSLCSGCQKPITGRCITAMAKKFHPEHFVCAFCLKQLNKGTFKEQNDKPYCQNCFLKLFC

[1] = variants of: B1; conditions: with tgfi1_mouse Tgfb1i1, Q62219
Sequence of tgfi1_mouse Tgfb1i1, Q62219 (Q62219 whole entry): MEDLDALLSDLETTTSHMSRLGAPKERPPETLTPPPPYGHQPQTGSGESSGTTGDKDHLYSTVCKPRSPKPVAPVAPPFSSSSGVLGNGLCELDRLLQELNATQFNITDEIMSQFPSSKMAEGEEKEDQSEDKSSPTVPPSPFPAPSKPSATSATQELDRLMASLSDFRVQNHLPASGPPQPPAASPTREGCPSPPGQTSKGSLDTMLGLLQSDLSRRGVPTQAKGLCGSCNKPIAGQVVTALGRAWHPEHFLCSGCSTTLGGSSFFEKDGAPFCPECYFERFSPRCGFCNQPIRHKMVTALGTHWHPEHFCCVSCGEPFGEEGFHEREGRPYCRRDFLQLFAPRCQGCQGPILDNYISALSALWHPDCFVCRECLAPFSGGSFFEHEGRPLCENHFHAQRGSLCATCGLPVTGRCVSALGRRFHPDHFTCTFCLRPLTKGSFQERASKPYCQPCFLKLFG

effect of a mutation on the interaction (paxi_human PXN, P49023) | effect of a mutation on the interaction [1] | Variant
disrupting interaction | disrupting interaction | L1034S
disrupting interaction | disrupting interaction | V928G
